Measured values from patent publication US20140171373A1 (REGENTS OF THE UNIVERSITY OF MINNESOTA, published 2014).

Key:
Assay in all cases: competitive binding assay (PROMEGA-GLO 2)
caspase-2 = molecular target: T1, caspase-2 (UniProt P42575 170-325; P42575 334-452, limits assumed)
T1 construct: also called recombinant caspase-2
T1 sequence (looked up) 1: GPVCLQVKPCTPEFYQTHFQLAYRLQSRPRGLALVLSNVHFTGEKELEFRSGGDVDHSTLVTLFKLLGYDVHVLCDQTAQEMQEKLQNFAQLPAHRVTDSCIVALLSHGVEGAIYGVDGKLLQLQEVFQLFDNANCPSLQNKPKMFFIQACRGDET
T1 sequence (looked up) 2: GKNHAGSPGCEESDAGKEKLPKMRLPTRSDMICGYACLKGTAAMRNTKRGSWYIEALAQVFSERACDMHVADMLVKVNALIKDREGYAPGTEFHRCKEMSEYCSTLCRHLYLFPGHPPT

caspase-3 = molecular target: T2, caspase-3 (UniProt P42574 29-277, limits assumed)
T2 sequence (looked up): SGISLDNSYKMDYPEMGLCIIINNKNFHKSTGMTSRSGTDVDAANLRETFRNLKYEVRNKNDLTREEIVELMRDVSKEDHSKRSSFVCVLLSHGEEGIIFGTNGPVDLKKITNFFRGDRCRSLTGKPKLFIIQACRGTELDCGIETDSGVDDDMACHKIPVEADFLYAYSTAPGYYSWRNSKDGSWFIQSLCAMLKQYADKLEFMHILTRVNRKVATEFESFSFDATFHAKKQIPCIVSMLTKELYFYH

caspase-6 = molecular target: T3, caspase-6 (UniProt P55212 24-179; P55212 194-293, limits assumed)
T3 sequence (looked up) 1: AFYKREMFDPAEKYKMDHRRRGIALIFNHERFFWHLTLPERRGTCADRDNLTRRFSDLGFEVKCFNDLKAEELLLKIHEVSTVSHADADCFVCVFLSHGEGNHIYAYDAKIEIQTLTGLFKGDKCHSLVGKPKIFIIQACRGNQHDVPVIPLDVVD
T3 sequence (looked up) 2: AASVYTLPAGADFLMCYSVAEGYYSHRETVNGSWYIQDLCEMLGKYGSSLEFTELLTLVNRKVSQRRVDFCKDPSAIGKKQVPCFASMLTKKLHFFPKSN

B1: Ac-YKPVD-CHO (SEQ ID NO: 1) (peptide)
peptide: Ac-YKPVD-aldehyde
SMILES: CC(=O)N[C@@H](Cc1ccc(O)cc1)C(=O)N[C@@H](CCCCN)C(=O)N1CCC[C@H]1C(=O)N[C@H](C(=O)N[C@H](C=O)CC(=O)O)C(C)C
notes: Designed to mimic the caspase-2 cleavage site of tau; also called parent pentapeptide; Tyr-Lys-Pro-Val-Asp
Work on B1 yielded a Ki (caspase-2) of 200 nM, a Ki (caspase-3) of 19.8 µM and a Ki (caspase-6) of 184 µM.
